Results reported in patent US20260125472A1 (HEFEI TG IMMUNOPHARMA, published 2026).
Changes are numbered by the printed parent chain.

B1: Cross313×PDL1 (bispecific antibody, human IgG1, kappa, L234A L235A)
scFv: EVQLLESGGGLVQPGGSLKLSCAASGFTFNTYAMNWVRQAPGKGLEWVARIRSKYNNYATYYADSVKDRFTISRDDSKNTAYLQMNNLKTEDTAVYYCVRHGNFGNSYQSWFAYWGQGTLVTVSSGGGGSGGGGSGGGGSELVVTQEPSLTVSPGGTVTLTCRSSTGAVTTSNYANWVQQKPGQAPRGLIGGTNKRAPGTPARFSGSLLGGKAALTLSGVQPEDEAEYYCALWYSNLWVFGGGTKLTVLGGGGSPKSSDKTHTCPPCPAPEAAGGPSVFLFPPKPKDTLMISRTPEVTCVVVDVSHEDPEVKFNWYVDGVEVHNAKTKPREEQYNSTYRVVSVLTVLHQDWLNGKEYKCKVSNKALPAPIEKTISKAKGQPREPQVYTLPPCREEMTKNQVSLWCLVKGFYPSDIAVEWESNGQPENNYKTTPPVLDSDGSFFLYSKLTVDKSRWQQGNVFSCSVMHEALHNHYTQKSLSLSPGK
heavy: QVQLVQSGAEVKKPGASVKVSCKASGYSFTGYYMHWVRQAPGQGLEWIGRINPYNGATTYSQNFKDRATMTVDTSISTAYMELSRLRSDDTAVYYCVPTGMGYFLMDYWGQGTLVTVSSASTKGPSVFPLAPSSKSTSGGTAALGCLVKDYFPEPVTVSWNSGALTSGVHTFPAVLQSSGLYSLSSVVTVPSSSLGTQTYICNVNHKPSNTKVDKKVEPKSCDKTHTCPPCPAPEAAGGPSVFLFPPKPKDTLMISRTPEVTCVVVDVSHEDPEVKFNWYVDGVEVHNAKTKPREEQYNSTYRVVSVLTVLHQDWLNGKEYKCKVSNKALPAPIEKTISKAKGQPREPQVCTLPPSREEMTKNQVSLSCAVKGFYPSDIAVEWESNGQPENNYKTTPPVLDSDGSFFLVSKLTVDKSRWQQGNVFSCSVMHEALHNHYTQKSLSLSPGK
light: DIQLTQSPSFLSASVGDRVTITCKASQDVGSAVVWYQQKPGKAPKLLIYWASTRHTGVPSRFSGSGSGTEFTLTISSLQPEDFATYFCQQFTSYPTFGQGTKLEIKRTVAAPSVFIFPPSDEQLKSGTASVVCLLNNFYPREAKVQWKVDNALQSGNSQESVTEQDSKDSTYSLSSTLTLSKADYEKHKVYACEVTHQGLSSPVTKSFNRGEC
B2: Cross317×PDL1 (bispecific antibody, human IgG1, kappa, L234A L235A)
scFv: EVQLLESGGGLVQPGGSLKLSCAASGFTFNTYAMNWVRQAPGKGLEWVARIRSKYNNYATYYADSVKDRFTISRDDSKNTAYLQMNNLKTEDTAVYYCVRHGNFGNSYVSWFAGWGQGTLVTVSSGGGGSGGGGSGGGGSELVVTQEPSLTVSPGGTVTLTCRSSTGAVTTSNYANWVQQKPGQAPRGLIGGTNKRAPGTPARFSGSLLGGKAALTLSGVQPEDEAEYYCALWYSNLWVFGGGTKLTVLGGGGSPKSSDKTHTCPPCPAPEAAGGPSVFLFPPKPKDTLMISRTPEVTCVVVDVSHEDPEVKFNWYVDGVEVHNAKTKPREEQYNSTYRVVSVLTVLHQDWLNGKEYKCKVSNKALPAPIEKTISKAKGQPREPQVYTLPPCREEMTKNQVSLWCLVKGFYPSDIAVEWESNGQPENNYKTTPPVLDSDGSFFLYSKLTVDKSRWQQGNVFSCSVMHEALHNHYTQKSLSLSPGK
heavy: B1 heavy
light: B1 light
B3: Cross309 (antibody, human IgG1, kappa, V domains shown)
VH: EVQLLESGGGLVQPGGSLKLSCAASGFTFNTYAMNWVRQAPGKGLEWVARIRSKYNNYATYYADSVKDRFTISRDDSKNTAYLQMNNLKTEDTAVYYCVRHGNFGNVYVSWFAYWGQGTLVTVSS
VL: ELVVTQEPSLTVSPGGTVTLTCRSSTGAVTTSNYANWVQQKPGQAPRGLIGGTNKRAPGTPARFSGSLLGGKAALTLSGVQPEDEAEYYCALWYSNLWVFGGGTKLTVLR
B4: Cross323 (antibody, human IgG1, kappa, V domains shown)
VH: B3 VH with V107S
VL: B3 VL with S95P
B5: Cross310 (antibody, human IgG1, kappa, V domains shown)
VH: B3 VH with V107Y
VL: B3 VL
B6: Cross308 (antibody, human IgG1, kappa, V domains shown)
VH: B3 VH with V107P
VL: B3 VL
B7: Cross326 (antibody, human IgG1, kappa, V domains shown)
VH: B3 VH with V107S
VL: B3 VL with L97P

Molecular target: T1, PDL1 on A-375 melanoma cells, HCT-15 colorectal cancer cells and A549 lung cancer cells (UniProt Q9NZQ7 19-290, limits assumed)
T1 construct: whole, on cells
Assay: flow cytometry, A549 cells, MFI [panel B]
Procedure: (2) The tumor cells were diluted to 2×10⁶/ml with PBS and added to a 1.5 ml EP tube at a volume of 100 μl/tube, and goat serum was added thereto at 10 μl/tube. The cells were blocked at 4° C. for 30 min. The serially diluted bispecific antibodies, Cross3×Trop2, Cross303×Trop2, Cross307×Trop2, Cross308×Trop2, Cross309×Trop2, Cross310×Trop2, Cross311×Trop2, Cross312×Trop2, Cross313×Trop2, Cross314×Trop2, Cross316×Trop2, Cross317×Trop2, Cross318×Trop2, Cross323×Trop2, Cross325×Trop2, Cross326×Trop2, and Cross3×PDL1, Cross303×PDL1, Cross307×PDL1, Cross308×PDL1, Cross309×PDL1, Cross310×PDL1, Cross311×PDL1, Cross312×PDL1, Cross313×PDL1, Cross314×PDL1, Cross316×PDL1, Cross317×PDL1, Cross318×PDL1, Cross323×PDL1, Cross325×PDL1, Cross326×PDL1, and control hIgG1LALA (purchased from Bio-Tech) were added and incubated at 4° C. for 30 min. 1 ml of PBS was added to the EP tube, followed by centrifugation at 3500 rpm for 5 min at 4° C. The supernatant was discarded, and the cells were washed again with PBS. After centrifugation, the supernatant was completely discarded, and the cells were resuspended with PBS at 100 μl/tube. Alexa-647-labeled goat anti-human IgG secondary antibody (purchased from Jackson lab) was added at 1 μl/tube and incubated at 4° C. in the dark for 30 min. The cells were washed twice with PBS, and the supernatant was completely discarded after centrifugation. The cells were resuspended with PBS at 200 μl/tube and assay was performed using the flow cytometry.

T1 sequence (Q9NZQ7 19-290 limits assumed): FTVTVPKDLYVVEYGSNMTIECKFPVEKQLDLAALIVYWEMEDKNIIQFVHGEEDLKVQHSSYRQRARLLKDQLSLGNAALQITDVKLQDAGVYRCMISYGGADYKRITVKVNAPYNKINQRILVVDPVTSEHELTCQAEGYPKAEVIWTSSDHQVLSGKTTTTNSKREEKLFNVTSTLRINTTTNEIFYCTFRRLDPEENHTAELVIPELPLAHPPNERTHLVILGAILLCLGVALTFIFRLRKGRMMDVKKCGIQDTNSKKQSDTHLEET

Binder	EC50 (read off the curve)
B1	~1 µg/mL
B2	~1 µg/mL

Molecular target: T2, CD3 on CD8 T cells (Homo sapiens (Human), UniProt P07766 23-207)
T2 construct: Native CD3 complex on CD8 T cells among PBMCs; also called T cells (PBMCs gated with anti-human CD8 antibody)
Assay: flow cytometry, CD8 T cells in PBMCs, binding ratio % [panel A]
Procedure: PBMCs were diluted with PBS to 2×10⁶/mL and added to a 1.5 ml EP tube at a volume of 100 μL/tube, 10 μL/tube of goat serum was added thereto and incubated at 4° C. for 30 min for blocking. […] 1 mL of PBS was added to the EP tube, followed by centrifugation at 3500 rpm for 5 min at 4° C. The supernatant was discarded, and the cells were washed again with PBS. After centrifugation, the supernatant was discarded, and the cells were resuspended with 100 μl/tube PBS. 1 μl/tube Alexa-647-labeled goat anti-human secondary antibody (purchased from Jackson lab) and 0.5 μl/tube PerCP-Cy5.5-labeled anti-human CD8 antibody were added and incubated at 4° C. in the dark for 30 min. The cells were washed twice with PBS, and the supernatant was discarded after centrifugation. The cells were resuspended with […] of PBS and assayed using the flow cytometry.

T2 sequence (P07766 23-207 limits assumed): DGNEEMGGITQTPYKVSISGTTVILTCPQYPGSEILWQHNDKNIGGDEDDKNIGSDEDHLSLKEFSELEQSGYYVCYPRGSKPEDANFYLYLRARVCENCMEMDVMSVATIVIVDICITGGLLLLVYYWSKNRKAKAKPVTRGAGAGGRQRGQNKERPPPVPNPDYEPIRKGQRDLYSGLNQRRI

Binder	EC50 (read off the curve)
B3	~0.4 µg/mL
B4	~0.3 µg/mL
B5	~0.3 µg/mL

Molecular target: T3, CD3E&D protein (UniProt P04234 22-105)
T3 construct: Purchased from Acro; also called CD3 E&D antigens; CD3E&D antigen protein
Assay: SPR (Biacore 8K), antibody on CM5 chip, CD3 E&D antigen as analyte
Design: Fold change: reference not given here
Procedure: In a Biacore 8K (Cytiva) system, the antibody was diluted to 10 μg/mL in HBS-EP running buffer and coupled to a CM5 chip (Cytiva) at a flow rate of 10 μL/min.

T3 sequence (chain, as listed by the source limits assumed, chain 1 of 2): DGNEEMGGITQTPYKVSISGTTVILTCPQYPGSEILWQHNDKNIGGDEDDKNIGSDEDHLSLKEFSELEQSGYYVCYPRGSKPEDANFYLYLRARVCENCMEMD
T3 sequence (P04234 22-105 limits assumed, chain 2 of 2): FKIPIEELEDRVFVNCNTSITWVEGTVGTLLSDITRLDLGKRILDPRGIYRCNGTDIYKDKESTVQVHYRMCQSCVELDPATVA

Binder	Fold change	Kd	koff	kon
B6	11.8	1.95 nM	0.0209 s⁻¹	1.07e+07 M⁻¹ s⁻¹
B3	11.1	1.83 nM	0.0124 s⁻¹	6.76e+06 M⁻¹ s⁻¹
B4	19.9	3.28 nM	0.0094 s⁻¹	2.86e+06 M⁻¹ s⁻¹
B5	16.8	2.77 nM	0.00613 s⁻¹	2.22e+06 M⁻¹ s⁻¹
B7	16.5	2.73 nM	0.0386 s⁻¹	1.41e+07 M⁻¹ s⁻¹

Molecular target: T4, PDL1 protein (UniProt Q9NZQ7 19-238)
T4 construct: Bought recombinant protein
Assay: ELISA, coated PDL1 protein, OD450 [panel A]
Procedure: (§1) (3) PDL1 protein (purchased from Acro) was diluted to 2 μg/ml with PBS buffer, added to a 96-well plate at a volume of 100 μL/well, and placed at 4° C. overnight. The PBS buffer in the 96-well plate was aspirated, and the plate was washed 6 times with PBST (pH 7.2 PBS containing 0.10% Tween 20) buffer. Then, PBS/10% BSA was added at 200 μL/well and incubated at 37° C. for 2 h for blocking. The blocking solution was removed, and the plate was washed six times with PBST. Then, the to-be-tested bispecific antibodies serially diluted with PBST/0.05% BSA, Cross3×PDL1, Cross303×PDL1, Cross307×PDL1, Cross308×PDL1, Cross309×PDL1, Cross310×PDL1, Cross311×PDL1, Cross312×PDL1, Cross313×PDL1, Cross314×PDL1, Cross316×PDL1, Cross317×PDL1, Cross318×PDL1, Cross323×PDL1, Cross325×PDL1, Cross326×PDL1, and control IgG1LALA (purchased from Bio-Tech) were added at 100 μL/well, and incubated at 37° C. for 1 h. The reaction system was removed, and the plate was washed 6 times with PBST. Then, the cells were incubated at 37° C. for 1 h with HRP (horseradish peroxidase)-labeled anti-human secondary antibody (Fab specific) (purchased from Sigma) serially diluted with PBST/0.05% BSA at 100 μL/well. After the plate was washed six times with PBST, TMB (tetramethylbenzidine) was added at 80 μL/well and incubated at room temperature for 3 min. 4 M sulfuric acid was added at 80 μL/well to terminate the reaction. The absorbance was read at 450 nm using a microplate reader.

T4 sequence (Q9NZQ7 19-238 limits assumed): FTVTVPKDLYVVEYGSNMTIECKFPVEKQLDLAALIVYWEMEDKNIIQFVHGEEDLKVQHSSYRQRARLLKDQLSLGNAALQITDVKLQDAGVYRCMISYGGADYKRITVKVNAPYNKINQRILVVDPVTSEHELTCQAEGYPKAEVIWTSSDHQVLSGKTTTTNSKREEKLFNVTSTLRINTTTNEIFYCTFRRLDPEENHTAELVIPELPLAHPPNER

Binder	EC50 (read off the curve)
B1	~0.2 µg/mL

Molecular target: T4, PDL1 protein
Assay: ELISA, coated PDL1 protein, OD450 [panel B]
Procedure: as §1

Binder	EC50 (read off the curve)
B2	~0.2 µg/mL

Molecular target: T2, CD3 on CD8 T cells
Assay: flow cytometry, CD8 T cells in PBMCs, binding ratio % [panel A]
Remark: another data set of the same source
Procedure: (1) PBMCs were diluted to 2×10⁶/ml with PBS and added to a 1.5 ml EP tube at 100 μl/tube, goat serum was added thereto at 10 μl/tube. The cells were blocked at 4° C. for 30 min. The serially diluted bispecific antibodies, Cross3×Trop2, Cross303×Trop2, Cross307×Trop2, Cross308×Trop2, Cross309×Trop2, Cross310×Trop2, Cross311×Trop2, Cross312×Trop2, Cross313×Trop2, Cross314×Trop2, Cross316×Trop2, Cross317×Trop2, Cross318×Trop2, Cross323×Trop2, Cross325×Trop2, Cross326×Trop2, Cross3×PDL1, Cross313×PDL1, Cross316×PDL1, Cross325×PDL1, and control hIgG1LALA (purchased from Bio-Tech) were added and incubated at 4° C. for 30 min. 1 ml of PBS was added to the EP tube, followed by centrifugation at 3500 rpm for 5 min at 4° C. The supernatant was discarded, and the system was washed again with PBS. After centrifugation, the supernatant was discarded, and the cells were resuspended with PBS at 100 μl/tube. 1 μl/tube Alexa-647-labeled goat anti-human IgG secondary antibody (purchased from Jackson lab) and 0.5 μl/tube PerCP-Cy5.5-labeled anti-human CD8 antibody were added and incubated at 4° C. in the dark for 30 min. The cells were washed twice with PBS. After centrifugation, the supernatant was discarded. The cells were resuspended with 200 μl/tube of PBS and assay is performed by flow cytometry.

Binder	EC50 (read off the curve)
B1	~2 µg/mL

Molecular target: T3, CD3E&D protein
Assay: ELISA, coated CD3E&D protein, OD450 [panel A]
Procedure: (§2) In this example, the binding properties of the parental antibody Cross3 and the CD3 affinity-reduced antibody (the production method and the amino acid sequences of the heavy and light chains were shown in Example 1) were detected by ELISA. The CD3E&D protein was coated onto a 96-well plate by the inventors, and the strength of the signal after the addition of the antibody was used to determine the binding properties of the antibody and CD3E&D.
(§3) CD3E&D protein (purchased from Acro) was diluted to 2 μg/ml with PBS buffer, added to a 96-well plate at a volume of 100 μL/well, and placed at 4° C. overnight. The PBS buffer in the 96-well plate was aspirated, and the plate was washed 6 times with PBST (pH 7.2 PBS containing 0.1% Tween 20) buffer. Then, 200 μL/well PBS/10% BSA was added and incubated at 37° C. for 2 h for blocking. The blocking solution was removed, and the plate was washed six times with PBST. Then, the to-be-tested antibodies serially diluted with PBST/0.05% BSA, Cross3, Cross303, Cross307, Cross308, Cross309, Cross310, Cross311, Cross312, Cross313, Cross314, Cross316, Cross317, Cross318, Cross323, Cross325, Cross326, and control IgG1 (purchased from Bio-Tech) were added at 100 μL/well, and incubated at 37° C. for 1 h. The reaction system was removed, and the plate was washed 6 times with PBST. Then, the cells were incubated at 37° C. for 1 h with HRP (horseradish peroxidase)-labeled anti-human secondary antibody (Fab specific) (purchased from Sigma) serially diluted with PBST/0.05% BSA at 100 μL/well. The plate was washed six times with PBST, TMB (tetramethylbenzidine) was added at 80 μL/well and incubated at room temperature for 3 min. 4 M sulfuric acid was added at 80 μL/well to terminate the reaction. The absorbance was read at 450 nm using a microplate reader.

Binder	EC50 (read off the curve)
B6	~0.03 µg/mL
B3	~0.03 µg/mL
B5	~0.03 µg/mL

Molecular target: T3, CD3E&D protein
Assay: ELISA, coated CD3E&D protein, OD450 [panel C]
Procedure: as §2, §3

Binder	EC50 (read off the curve)
B4	~0.03 µg/mL
B7	~0.03 µg/mL
